Data from patent US20250011413A1 (MCMASTER UNIVERSITY, published 2025).
Residue numbers refer to the chain shown, from its start. Names may count otherwise.

B1: Wildtype scFv (KKO-derived single chain variable fragment) (scFv)
scFv: DIQMIQSQKFMSTSVGDRVTVTCKASQNVGTNVAWYQQKPGQSPNALIYSASYRYSGVPDRFTGSGSGTDFTLTITNVQSEDLADYFCQQYNSYPLTFGTGTKLDLKGGGGSGGGGSGGGGSVQLQQSGAELVKPGASVKLSCKASGYTFTNYFIYWVKQRPGQGLEWIGEINPRNGDTDFNEKFESRATLTVDKSSSTAYMQLSSLTSEDSAIYYCTRSPYGNNYGFTYWGQGTLVTVSA
notes: VL-(G4S)3 linker-VH; expressed in E. coli BL21 from pADL-22c, purified on Ni-NTA as histidine-tagged scFv, about 28 kDa; also called WT; KKO-scFv; not shown: histidine tag from the pADL-22c vector
B2: Mutant F scFv, scFv(E183V, E186K, G223R) (scFv)
scFv: B1 scFv with E183V, E186K, G223R
notes: VL-linker-VH; histidine-tagged, from E. coli BL21; also called Mut F; not shown: histidine tag from the pADL-22c vector
B3: Mutant B scFv, scFv(R18K, N152K, D180N) (scFv)
scFv: B1 scFv with R18K, N152K, D180N
notes: VL-linker-VH; histidine-tagged, from E. coli BL21; also called Mut B; not shown: histidine tag from the pADL-22c vector
B4: Mutant D scFv, scFv(Y156H) (scFv)
scFv: B1 scFv with Y156H
notes: VL-linker-VH; histidine-tagged, from E. coli BL21; also called Mut D; not shown: histidine tag from the pADL-22c vector
B5: Mutant E scFv, scFv(Y156H, D180G, Q233P) (scFv)
scFv: B1 scFv with Y156H, R175K, D180G, Q233P
notes: VL-linker-VH; histidine-tagged, from E. coli BL21; also called Mut E; not shown: histidine tag from the pADL-22c vector

target: T1, Human PF4 (CXCL4), biotinylated, without heparin (human, UniProt P02776 32-101, biotinylated with EZ-link-Sulfo-NHS-LC-Biotin (sites not given)); test: BLI (Octet), biotinylated PF4 without heparin on streptavidin sensors, 1:1 model; scFv at 0.5 µg/mL
T1 construct: Immobilised on streptavidin biosensors for BLI; also called PF4 alone; platelet factor 4
T1 sequence: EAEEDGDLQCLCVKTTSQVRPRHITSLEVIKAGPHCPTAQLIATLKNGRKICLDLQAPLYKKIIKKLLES
Description: (§1) The Octet-QK Red 96 (FortéBio, Menlo Park, CA) instrumentation was used to conduct all BLI experiments. A 96-well microtiter plate (black, flat-bottom) was used to hold 200 μL per well of either sample or buffer. Pre-coated streptavidin biosensor tips (FortéBio) were hydrated in phosphate buffered saline (PBS) containing 1% bovine serum albumin (BSA, Sigma-Aldrich) before performing all kinetic assays. Each step was performed at an operating temperature of 23° C. with agitation at 1000 rpm. Streptavidin tips were first equilibrated in PBS+1% BSA to establish a baseline. […] The PF4-coated tips were then dipped into PBS+1% BSA for 13 minutes to re-establish a baseline. Tips were then incubated in an analyte solution containing half-fold dilutions of wildtype scFv (4.0, 2.0, 1.0, 0.5, 0.25 μg/mL in PBS+1% BSA) for 10 minutes to measure association. For mutant scFv association, tips were incubated in an analyte solution containing 200 μL of each mutant and wildtype scFv at a final concentration of 1 μg/mL in PBS+1% BSA. Antibody dissociation steps were performed by dipping sensors in wells containing PBS+1% BSA for 56 minutes. The following negative controls included in these kinetic experiments were also measured: 200 μL of buffer to replace both the antigen and scFv and 200 μL buffer replacing scFv only. Each experiment was performed with PF4 or with PF4/heparin as the immobilized antigen.
BLI experiments were performed to evaluate binding responses and affinities of wildtype and mutant scFv. Biotinylated PF4 alone or complexed with heparin was immobilized on streptavidin biosensors and used to capture wildtype scFv. Half-fold serial dilutions of wildtype scFv ranging from 0.25 μg/mL to 4 μg/mL were used to determine the optimal concentrations for future experiments PF4 (PF4 FIG. 3; PF4/heparin FIG. 4).

Row | Binder | Kd | koff | kon
1 | B1 | 34.5 nM | 0.0037 s⁻¹ | 107000 M⁻¹ s⁻¹

target: T2, PF4/heparin complex (human PF4 complexed with heparin) (human, UniProt P02776 32-101); test: competition EIA, scFv 50 µg/mL; competitor HIT-positive sera antibodies, n=10
T2 construct: Multimeric complex of PF4 with heparin (not a protein); In the EIAs: PF4 captured on biotinylated heparin on streptavidin plates; In the SRA: platelets with 0.2 U/mL heparin; also called PF4 and heparin complexes
T2 sequence: T1 sequence

Row | Binder | mean % inhibition of serum antibody binding
2 | B1 | 44.7%
3 | B2 | 80%
4 | B3 | 77.8%
5 | B4 | 78.3%
6 | B5 | 76.5%

target: T2, PF4/heparin complex (human PF4 …); test: competition EIA, scFv 50 µg/mL; competitor HIT-negative sera antibodies, n=10
Description: Inhibitory PF4/heparin IgG-specific Streptavidin Enzyme Immunoassay (EIA). The binding activity of wildtype and mutant scFv antibodies to PF4/heparin complexes was measured using an inhibitory PF4/heparin IgG-specific EIA with a streptavidin-biotin capture system. Before performing this protocol, 96-well NUNC Maxisorp plates (ThermoFisher) were coated with 10 μg/mL streptavidin for 24 h. Plates were then blocked with 3% bovine serum albumin (BSA) in phosphate buffered saline (PBS) for 2 h at room temperature. Plates were then coated with 1 U/mL biotinylated-heparin for 1 h followed by 30 μg/mL PF4 for 1 h. Increasing concentrations of wildtype or mutant scFv were added and incubated for 1 hr at room temperature. Without removing wildtype or scFv, HIT patient sera in a 1:50 dilution or full-length KKO (2 μg/mL) was then incubated for 1 h at room temperature. After washing, alkaline phosphatase-conjugated anti-human or anti-mouse IgG (Jackson Immuno Research Laboratories, Inc., West Grove, PA) was added at a 1:4000 dilution and incubated for 1 h temperature. For detection, 1 mg/mL p-nitrophenylphosphate (PNPP, Sigma-Aldrich) substrate dissolved in 1 mol/L diethanolamine (DEA) buffer (pH 9.6) was added. The optical density (OD) was measured at 2 min intervals for 30 min at 405 nm (OD₄₀₅ₙₘ) using a BioTek 800 TS plate reader (BioTek Instruments Inc., Winooski, VT) to determine if anti-PF4/heparin antibody binding was inhibited. Results were reported as a decrease in OD (absorbance at 405 nm) from baseline levels.
Sera (n=10) from confirmed HIT-negative patients (EIA-positive/SRA-negative) containing anti-PF4/heparin antibodies were then used in the same EIA with scFv constructs to determine if antibody binding was decreased in this cohort (Table 5).

Row | Binder | mean OD405nm of bound serum IgG (+ scFv)
7 | B1 | 1.41 OD405nm
8 | B2 | 1.19 OD405nm
9 | B3 | 1.1 OD405nm
10 | B4 | 1 OD405nm
11 | B5 | 1.08 OD405nm

target: T2, PF4/heparin complex (human PF4 …); test: BLI (Octet), biotinylated PF4/heparin on streptavidin sensors, scFv at 1 µg/mL, 1:1 model, mean ± s.d.
Description: (§2) BLI experiments were performed using wildtype scFv, mutant B, mutant C, mutant D, mutant E, and mutant F at 1 μg/mL. Binding was measured against immobilized biotinylated PF4/heparin complexes on streptavidin biosensors. b) Table showing kinetic data of wildtype and mutant scFv, including binding responses and association and dissociation rates. All data was analyzed based on a 1:1 homogenous ligand binding model using Octet®) User Software version 3.1.
as §1
(§3) BLI experiments were performed to evaluate binding responses and affinities of wildtype and mutant scFv. Biotinylated PF4 alone or complexed with heparin was immobilized on streptavidin biosensors and used to capture wildtype scFv.

Row | Binder | koff | kon
12 | B1 | 0.000519 s⁻¹ | 96700 M⁻¹ s⁻¹
13 | B2 | 1.41e-05 s⁻¹ | 50900 M⁻¹ s⁻¹
14 | B3 | 3.91e-05 s⁻¹ | 27600 M⁻¹ s⁻¹
15 | B4 | 3.47e-05 s⁻¹ | 12900 M⁻¹ s⁻¹
16 | B5 | 2.78e-05 s⁻¹ | 79200 M⁻¹ s⁻¹

target: T1, Human PF4 (CXCL4), biotinylated, …; test: BLI (Octet), biotinylated PF4 without heparin on streptavidin sensors, scFv at 1 µg/mL, 1:1 model, mean ± s.d. [cont.) b]
Description: as §2, with “PF4” for “PF4/heparin complexes”, “Octet®” for “Octet®)”
as §1, §3

Row | Binder | koff | kon
17 | B1 | 0.00255 s⁻¹ | 12500 M⁻¹ s⁻¹
18 | B2 | 2.52e-05 s⁻¹ | 42200 M⁻¹ s⁻¹
19 | B3 | 5.07e-05 s⁻¹ | 30200 M⁻¹ s⁻¹
20 | B4 | 0.000103 s⁻¹ | 25700 M⁻¹ s⁻¹
21 | B5 | 0.000124 s⁻¹ | 69300 M⁻¹ s⁻¹

target: T2, PF4/heparin complex (human PF4 …); test: BLI (Octet), biotinylated PF4/heparin on streptavidin sensors, 1:1 model; scFv at 0.25 µg/mL (response near baseline, software limit value)
Description: as §1, with “antigen. […]” for “antigen.”

Row | Binder | Kd
22 | B1 | < 0.001 nM
